Source: patent US20230265151A1, “GIP/GLP1 CO-AGONIST COMPOUNDS” (priority 2020, published 2023)
Numbering of substitutions follows the chain as printed.

B1: Example 94 (peptide)
peptide: YXEGTXTSDXSIXLDXKAQXEXIXXLIEGGKSSGAPPPS
modifications: Aib2, αMeF(2F)6, Ac5c10, αMeL13, Orn16, Aib20, αMeF22, D-Glu24, αMeY25, K17 and K31: K(AEEA2-(γ-Glu)-CO-(CH2)12-CO2H), C-terminal NH2
B2: Example 83 (peptide)
peptide: B1 peptide with X22F, X24K, K31P
modifications: Aib2, αMeF(2F)6, 4Pal10, αMeL13, Orn16, Aib20, αMeF25, K17 and K24: K(AEEA2-(γ-Glu)-CO-(CH2)12-CO2H), C-terminal NH2
B3: Example 82 (peptide)
peptide: B1 peptide with X24K, K31P
modifications: Aib2, αMeF(2F)6, 4Pal10, αMeL13, Orn16, Aib20, αMeF22, αMeY25, K17 and K24: K(AEEA2-(γ-Glu)-CO-(CH2)12-CO2H), C-terminal NH2
B4: Example 81 (peptide)
peptide: B1 peptide with X22F, X24K, K31P
modifications: Aib2, αMeF(2F)6, 4Pal10, αMeL13, Orn16, Aib20, αMeY25, K17 and K24: K(AEEA2-CO-(CH2)12-CO2H), C-terminal NH2
B5: Example 9 (peptide)
peptide: B1 peptide with X22F
modifications: Aib2, αMeF(2F)6, 4Pal10, αMeL13, Orn16, Aib20, D-Glu24, αMeY25, K17 and K31: K(AEEA2-CO-(CH2)12-CO2H), C-terminal NH2
B6: Example 76 (peptide)
peptide: B1 peptide with E21K, X22F, K31P
modifications: Aib2, αMeF(2F)6, 4Pal10, αMeL13, Orn16, Aib20, D-Glu24, αMeY25, K17 and K21: K(AEEA-(γ-Glu)-CO-(CH2)12-CO2H), C-terminal NH2
B7: Example 95 (peptide)
peptide: B1 peptide with X22F
modifications: Aib2, αMeF(2F)6, Ac4c10, αMeL13, Orn16, Aib20, D-Glu24, αMeY25, K17 and K31: K(AEEA2-(γ-Glu)-CO-(CH2)12-CO2H), C-terminal NH2
B8: Example 88 (peptide)
peptide: B1 peptide
modifications: Aib2, αMeF(2F)6, 4Pal10, αMeL13, Orn16, Aib20, αMeF(2F)22, D-Glu24, αMeY25, K17 and K31: K(AEEA2-(γ-Glu)-CO-(CH2)12-CO2H), C-terminal NH2
B9: Example 92 (peptide)
peptide: B1 peptide with X10V
modifications: Aib2, αMeF(2F)6, αMeL13, Orn16, Aib20, αMeF22, D-Glu24, αMeY25, K17 and K31: K(AEEA2-(γ-Glu)-CO-(CH2)12-CO2H), C-terminal NH2
B10: Example 90 (peptide)
peptide: B1 peptide with X10V, X22F
modifications: Aib2, αMeF(2F)6, αMeL13, Orn16, Aib20, D-Glu24, αMeY25, K17 and K31: K(AEEA2-(γ-Glu)-CO-(CH2)12-CO2H), C-terminal NH2
B11: Example 8 (peptide)
peptide: B1 peptide with X22F
modifications: Aib2, αMeF(2F)6, 4Pal10, αMeL13, Orn16, Aib20, D-Glu24, αMeY25, K17 and K31: K(AEEA2-(γ-Glu)-CO-(CH2)12-CH3), C-terminal NH2
B12: Example 78 (peptide)
peptide: B1 peptide with E21K, X22F, K31P
modifications: Aib2, αMeF(2F)6, 4Pal10, αMeL13, Orn16, Aib20, D-Glu24, αMeY25, K17 and K21: K(AEEA2-CO-(CH2)12-CO2H), C-terminal NH2
B13: Example 79 (peptide)
peptide: B1 peptide with X22F, X24K, K31P
modifications: Aib2, αMeF(2F)6, 4Pal10, αMeL13, Orn16, Aib20, αMeY25, K17 and K24: K(AEEA-(γ-Glu)-CO-(CH2)12-CO2H), C-terminal NH2
B14: Example 64 (peptide)
peptide: B1 peptide
modifications: Aib2, αMeF(2F)6, 4Pal10, αMeL13, Orn16, Aib20, 3FPhe22, D-Glu24, αMeY25, K17 and K31: K(AEEA2-(γ-Glu)-CO-(CH2)12-CO2H), C-terminal NH2
B15: Example 69 (peptide)
peptide: YXEGTXTSDXSIXLDXIAQXKFIKXLIEGGPSSGAPPPS
modifications: Aib2, αMeF(2F)6, 4Pal10, αMeL13, Orn16, Aib20, αMeY25, K21 and K24: K(AEEA2-(γ-Glu)-CO-(CH2)12-CO2H), C-terminal NH2
B16: Example 73 (peptide)
peptide: B15 peptide with K24X, E28K
modifications: Aib2, αMeF(2F)6, 4Pal10, αMeL13, Orn16, Aib20, D-Glu24, αMeY25, K21 and K28: K(AEEA2-(γ-Glu)-CO-(CH2)12-CO2H), C-terminal NH2
B17: Example 70 (peptide)
peptide: B15 peptide with K21E, E28K
modifications: Aib2, αMeF(2F)6, 4Pal10, αMeL13, Orn16, Aib20, αMeY25, K24 and K28: K(AEEA2-(γ-Glu)-CO-(CH2)12-CO2H), C-terminal NH2
B18: Example 72 (peptide)
peptide: YXEGTXTSDXSIXLDXIAQXEFIKXLIEGGPSSGAPPPSK
modifications: Aib2, αMeF(2F)6, 4Pal10, αMeL13, Orn16, Aib20, αMeY25, K24 and K40: K(AEEA2-(γ-Glu)-CO-(CH2)12-CO2H), C-terminal NH2
B19: Example 75 (peptide)
peptide: B18 peptide with E21K, K24X
modifications: Aib2, αMeF(2F)6, 4Pal10, αMeL13, Orn16, Aib20, D-Glu24, αMeY25, K21 and K40: K(AEEA2-(γ-Glu)-CO-(CH2)12-CO2H), C-terminal NH2

Experiments:
Assay in all cases: cell-based or functional assay
human GIP receptor = molecular target: T1, human GIP receptor (human, UniProt P48546 22-466)
T1 sequence (looked up): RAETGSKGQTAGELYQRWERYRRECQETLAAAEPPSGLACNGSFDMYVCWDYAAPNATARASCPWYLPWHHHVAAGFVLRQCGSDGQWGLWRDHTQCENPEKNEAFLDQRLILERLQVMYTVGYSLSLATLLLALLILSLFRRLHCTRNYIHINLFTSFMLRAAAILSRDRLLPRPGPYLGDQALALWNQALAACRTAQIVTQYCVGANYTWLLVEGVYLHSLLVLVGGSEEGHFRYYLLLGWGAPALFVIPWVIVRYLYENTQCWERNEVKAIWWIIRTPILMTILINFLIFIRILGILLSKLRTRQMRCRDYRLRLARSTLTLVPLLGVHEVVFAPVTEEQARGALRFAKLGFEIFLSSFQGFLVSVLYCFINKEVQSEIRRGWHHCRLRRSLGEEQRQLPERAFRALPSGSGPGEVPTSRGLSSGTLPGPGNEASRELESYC

human GLP-1 receptor = human GLP-1 receptor (human, UniProt P43220 24-463)
human glucagon receptor = human glucagon receptor (human, UniProt P47871 26-477)

Binder	EC50, cAMP (human GIP receptor) [nM]	EC50, cAMP (human GLP-1 receptor) [nM]	Emax, cAMP (human GLP-1 receptor) [%]	EC50, cAMP (human glucagon receptor) [nM]	Emax, cAMP (human GIP receptor) [%]
B1	0.0132	2.1	97.4	> 9950	–
B2	0.0223	0.451	–	> 9950	89.6
B3	0.0206	4.78	–	> 9950	81.4
B4	0.0114	0.176	–	> 9950	–
B5	0.0102	0.421	–	> 9950	–
B6	0.0205	0.527	–	> 9950	–
B7	0.0748	0.181	–	> 9950	–
B8	0.00884	6.08	97.1	> 9950	85.1
B9	0.0251	0.942	–	> 9950	–
B10	0.0436	0.221	96.2	> 9950	93
B11	0.00307	0.0157	–	> 9950	–
B12	0.0145	0.286	–	> 9950	–
B13	0.013	0.223	–	> 9950	–
B14	0.0158	0.557	97.3	> 9950	–
B15	0.0265	0.276	–	> 9950	99
B16	0.0207	0.437	–	> 9950	97.1
B17	0.0182	0.283	–	> 9950	89.1
B18	0.016	0.245	–	> 9950	96.5
B19	0.0182	0.411	–	> 9950	92.3
